# Target: Angiotensin I converting enzyme (ACE) from rabbit lung (rabbit) (UniProt P12822)
# Chain of UniProt P12822 (P12822 34-1310): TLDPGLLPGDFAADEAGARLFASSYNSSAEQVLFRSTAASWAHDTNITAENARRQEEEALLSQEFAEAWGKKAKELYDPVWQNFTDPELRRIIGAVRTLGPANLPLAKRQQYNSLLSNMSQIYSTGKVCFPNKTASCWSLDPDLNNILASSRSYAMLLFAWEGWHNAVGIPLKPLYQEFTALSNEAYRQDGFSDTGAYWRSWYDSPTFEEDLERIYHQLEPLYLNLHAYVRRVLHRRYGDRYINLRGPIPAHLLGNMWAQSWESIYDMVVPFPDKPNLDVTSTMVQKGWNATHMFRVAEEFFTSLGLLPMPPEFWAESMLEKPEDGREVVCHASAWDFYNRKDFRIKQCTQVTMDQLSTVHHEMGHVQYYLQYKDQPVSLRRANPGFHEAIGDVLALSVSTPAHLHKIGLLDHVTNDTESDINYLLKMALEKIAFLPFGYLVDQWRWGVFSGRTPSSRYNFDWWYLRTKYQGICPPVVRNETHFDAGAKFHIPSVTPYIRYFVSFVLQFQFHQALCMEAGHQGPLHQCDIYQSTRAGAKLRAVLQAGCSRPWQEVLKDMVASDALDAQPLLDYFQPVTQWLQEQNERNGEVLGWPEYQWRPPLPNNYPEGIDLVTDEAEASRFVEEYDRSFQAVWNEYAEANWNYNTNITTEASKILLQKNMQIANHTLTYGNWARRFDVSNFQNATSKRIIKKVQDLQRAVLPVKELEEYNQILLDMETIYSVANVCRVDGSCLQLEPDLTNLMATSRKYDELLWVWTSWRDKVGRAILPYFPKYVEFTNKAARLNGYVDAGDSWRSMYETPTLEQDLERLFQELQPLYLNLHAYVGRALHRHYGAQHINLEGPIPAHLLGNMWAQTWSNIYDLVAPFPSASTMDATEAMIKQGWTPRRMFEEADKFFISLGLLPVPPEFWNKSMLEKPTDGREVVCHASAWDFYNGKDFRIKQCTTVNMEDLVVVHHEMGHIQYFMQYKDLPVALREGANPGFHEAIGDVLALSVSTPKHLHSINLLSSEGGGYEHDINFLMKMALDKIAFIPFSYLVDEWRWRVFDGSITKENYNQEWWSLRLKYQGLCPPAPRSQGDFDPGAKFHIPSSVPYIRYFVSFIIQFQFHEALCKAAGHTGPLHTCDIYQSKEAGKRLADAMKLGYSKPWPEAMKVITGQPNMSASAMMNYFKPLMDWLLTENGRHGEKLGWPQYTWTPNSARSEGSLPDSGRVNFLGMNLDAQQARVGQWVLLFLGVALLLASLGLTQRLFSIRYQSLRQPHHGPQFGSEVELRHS
row,Substance,"IC50 of inhibition of ACE activity (hippuric acid released from Hip-His-Leu, RP-HPLC; 50 mM HEPES, 360 mM NaCl, pH 8.3, 37°C)"
1,Cys-Arg (peptide),476 μM
2,Cys-Cys (peptide),4.37 μM
3,Cys-Phe (peptide),13.8 μM
